Reference: US11285274B2, “Methods for the systemic delivery of therapeutic agents to the pulmonary system using a droplet delivery device” (PNEUMA RESPIRATORY, INC., priority 2016, dated 2022)
Values joined by “and” are separate entries in the source; they are usually repeats but may differ in a detail not shown here. Equal values may be shown once.

Tests used:
[1] = Gel electrophoresis of active agent after droplet generation; type: physicochemical
Text: To determine the stability of active agent after droplet generation, the generated stream of droplets including the active agent is collected and the molecular weight of the active agent is verified using gel electrophoresis.

[2] = Size exclusion chromatography (SEC) stability after aerosol generation with test device; type: physicochemical; details: for Peak Area %, Peak 1 / Peak Area %, Peak 2 / Peak Area %, Peak 3: Insulin (Humalog Kwikpen 200 U/ml)
Text: Alternately, to determine the stability of active agent after droplet generation, the generated stream of droplets including the active agent may be collected and […] may be employed to monitor for any changes in large molecule aggregation and protein fragment content. Soluble protein aggregates and protein fragment content may be calculated by comparing respective peak area under the SEC-HPLC curve of dispensed protein solutions with controls (solutions remaining in the device reservoir). Drug solutions for testing include Enbrel, (ENBREL® single-use prefilled syringes in 25 mg (0.51 mL of a 50 mg/mL solution of etanercept), and insulin, (Humalog, 200 units/ml, 3 ml […] is performed with a YarraTM 3 um SEC-2000 LC column 300×7.8 mm, SecurityGuard cartridge kit and SecurityGuard cartridges GFC-2000, 4×3 mm ID. Fifty microliters of Enbrel from the syringe (ENBREL® single-use prefilled syringes in 25 mg/0.51 mL of a 50 mg/mL solution of etanercept) is diluted (4:1) (4 parts, 200 mcl of the mobile phase buffer solution to 1 part, 50 mcl Enbrel from syringe). Fifty microliter of the diluted Enbrel is injected and separation was performed at a flow rate of 1.0 ml/min. The mobile phase buffer system included a PHOS. BUFF. SALINE. […] UV detection is performed at 280 nm. […] Aerosol collection and SEC is performed in a similar fashion as for the Enbrel analysis and aerosol collection. […] Fifty microliters of the collected aerosol spray is injected onto the SEC column for analysis, while 50 mcl of the […] insulin solution is injected onto the SEC column for control samples.

[3] = tested on: patients with cystic fibrosis; details: cited from earlier work
[4] = aerosolized with test device (20 actuations), SEC
[5] = Insulin aerosolized with test device
[6] = Enbrel aerosolized with test device
[7] = Enbrel aerosolized, average of S1 and S2
[8] = Enbrel diluted 4:1 (10 mg/ml), control (not aerosolized), SEC, UV 280 nm

bevacizumab
change in electrophoretic mobility (molecular weight) of post-aerosol active agent from control [1]: negligible change

Insulin
Peak Area %, Peak 1 [2, 4]: 27.881% and 28.721% | Peak Area %, Peak 2 [2, 4]: 69.780% and 67.807% | Peak Area %, Peak 3 [2, 4]: 2.184% and 2.797% | Peak Area %, Peak 1 ([2]; control (not aerosolized), SEC): 29.926% | Peak Area %, Peak 2 ([2]; control (not aerosolized), SEC): 69.630% | Peak Area %, Peak 3 ([2]; control (not aerosolized), SEC): 0% | fraction of the ejected dose forming a fragment which elutes at ~25 minutes [2, 5]: 2.5% | fraction of the ejected dose structurally unchanged [2, 5]: 97.5% | Peak Area %, Peak 3, Avg. ([2]; Insulin aerosolized, average of S1 and S2): 2.4905%

etanercept [Enbrel]
fraction of the dose forming molecular fragments with elution times of 13 and 25 minutes [2, 6]: 4.6% | fraction structurally unchanged after delivering an aerosol dose [2, 6]: 95.4% | Peak Area %, Peak 4, Avg. [2, 7]: 0.3545% | Peak Area %, Peak 5, Avg. [2, 7]: 4.2755% | Peak Area %, Peak 4 [2, 8]: 0% | Peak Area %, Peak 5 [2, 8]: 0% | change in electrophoretic mobility (molecular weight) of post-aerosol active agent from control [1]: negligible change

NC[C@H]1O[C@H](O[C@H]2[C@H](O)[C@@H](O[C@H]3O[C@H](CO)[C@@H](O)[C@H](N)[C@H]3O)[C@H](N)C[C@@H]2N)[C@H](N)C[C@@H]1O [tobramycin]
pulmonary function and kidney side effects ([3]; administration by inhalation): significantly improves pulmonary function without severe side effects to kidney functions | serum levels and kidney toxicity ([3]; intravenous administration): very high serum levels that are toxic to the kidneys

adalimumab
change in electrophoretic mobility (molecular weight) of post-aerosol active agent from control [1]: negligible change
